Article PMC9254107, “The Toxoplasma glucan phosphatase TgLaforin utilizes a distinct functional mechanism that can be exploited by therapeutic inhibitors” (The Journal of Biological Chemistry, 2022)

Substrate: O=[N+]([O-])c1ccc(OP(=O)(O)O)cc1
Experiment: purified protein, by the assay type

Protein	Km (other: pH 5.5, 37 °C) [mM]	Vmax (other: pH 5.5, 37 °C) [nmol PO4/min]	Km (pH 5.5, 37.0 °C) [mM]
TgLaforin (Toxoplasma gondii ME49) (protein) MRVRFSVTAFVPPNAQLGVVGSAPFLGEWKLEHCVPLMPYSAPHPQGLEPSLWFRDIDLDPASCPNDTNDVHSTAAVSASCSADRRRCDLSRQSPHCFPSARSASPYMVEVSRGDCPFAVELMSTSQHVLSEFSKHNSPVYSAGEQRFRRSLPSSASFSSCTSSGSAVAATKCVWDAAAYRVATRAPEVQAVLESHPLRHCAFEYKFVLWYPPNGEIAVPYVPTTAGEEVPITYAGDSEVLNEESEGGARRRSWRKWLFPPSPSRCPAPPGPSESIVWEGFGPDSNRKFCFDPFDVVVDVNELGDLECLYICRIAHFRDPRAGGVGEYDLTTRFYNSVKSECRMHYSTIFPRFFVGSCPRQLKHIRHLKEELKVTCVVNLQTEQDLCNNYPDPIASSRSAEAVSQLYDGSGLRYVWLPTADMCDSARKIAVANAAFLLLGLFQSGHSVYMHCNAGVGRSVAAACAFLCFAVGLDLRKVNFLICARRPVAYWDEKAMKYGIGDYQAKFGHCRVVGEEAEERQHA	1.0 ± 0.05	1.4 ± 0.02	–
VHR (Vaccinia H1-related phosphatase) (Homo sapiens) (protein) MSGSFELSVQDLNDLLSDGSGCYSLPSQPCNEVTPRIYVGNASVAQDIPKLQKLGITHVLNAAEGRSFMHVNTNANFYKDSGITYLGIKANDTQEFNLSAYFERAADFIDQALAQKNGRVLVHCREGYSRSPTLVIAYLMMRQKMDVKSALSIVRQNREIGPNDGFLAQLCQLNDRLAKEGKLKP	–	–	2.5 ± 0.1
